B1: pregnancy zone protein (PZP) (natural protein, human, UniProt P20742 26-1482, looked up)
chain: TEPQYMVLVPSLLHTEAPKKGCVLLSHLNETVTVSASLESGRENRSLFTDLVAEKDLFHCVSFTLPRISASSEVAFLSIQIKGPTQDFRKRNTVLVLNTQSLVFVQTDKPMYKPGQTVRFRVVSVDENFRPRNELIPLIYLENPRRNRIAQWQSLKLEAGINQLSFPLSSEPIQGSYRVVVQTESGGRIQHPFTVEEFVLPKFEVKVQVPKIISIMDEKVNITVCGEYTYGKPVPGLATVSLCRKLSRVLNCDKQEVCEEFSQQLNSNGCITQQVHTKMLQITNTGFEMKLRVEARIREEGTDLEVTANRISEITNIVSKLKFVKVDSHFRQGIPFFAQVLLVDGKGVPIPNKLFFISVNDANYYSNATTNEQGLAQFSINTTSISVNKLFVRVFTVHPNLCFHYSWVAEDHQGAQHTANRVFSLSGSYIHLEPVAGTLPCGHTETITAHYTLNRQAMGELSELSFHYLIMAKGVIVRSGTHTLPVESGDMKGSFALSFPVESDVAPIARMFIFAILPDGEVVGDSEKFEIENCLANKVDLSFSPAQSPPASHAHLQVAAAPQSLCALRAVDQSVLLMKPEAELSVSSVYNLLTVKDLTNFPDNVDQQEEEQGHCPRPFFIHNGAIYVPLSSNEADIYSFLKGMGLKVFTNSKIRKPKSCSVIPSVSAGAVGQGYYGAGLGVVERPYVPQLGTYNVIPLNNEQSSGPVPETVRSYFPETWIWELVAVNSSGVAEVGVTVPDTITEWKAGAFCLSEDAGLGISSTASLRAFQPFFVELTMPYSVIRGEVFTLKATVLNYLPKCIRVSVQLKASPAFLASQNTKGEESYCICGNERQTLSWTVTPKTLGNVNFSVSAEAMQSLELCGNEVVEVPEIKRKDTVIKTLLVEAEGIEQEKTFSSMTCASGANVSEQLSLKLPSNVVKESARASFSVLGDILGSAMQNIQNLLQMPYGCGEQNMVLFAPNIYVLNYLNETQQLTQEIKAKAVGYLITGYQRQLNYKHQDGSYSTFGERYGRNQGNTWLTAFVLKTFAQARSYIFIDEAHITQSLTWLSQMQKDNGCFRSSGSLLNNAIKGGVEDEATLSAYVTIALLEIPLPVTNPIVRNALFCLESAWNVAKEGTHGSHVYTKALLAYAFSLLGKQNQNREILNSLDKEAVKEDNLVHWERPQRPKAPVGHLYQTQAPSAEVEMTSYVLLAYLTAQPAPTSGDLTSATNIVKWIMKQQNAQGGFSSTQDTVVALHALSRYGAATFTRTEKTAQVTVQDSQTFSTNFQVDNNNLLLLQQISLPELPGEYVITVTGERCVYLQTSMKYNILPEKEDSPFALKVQTVPQTCDGHKAHTSFQISLTISYTGNRPASNMVIVDVKMVSGFIPLKPTVKMLERSSSVSRTEVSNNHVLIYVEQVTNQTLSFSFMVLQDIPVGDLKPAIVKVYDYYETDESVVAEYIAPCSTDTEHGNV
B2: transformed α2M (α2M*) (natural protein, human, UniProt P01023 24-1474, looked up)
chain: SVSGKPQYMVLVPSLLHTETTEKGCVLLSYLNETVTVSASLESVRGNRSLFTDLEAENDVLHCVAFAVPKSSSNEEVMFLTVQVKGPTQEFKKRTTVMVKNEDSLVFVQTDKSIYKPGQTVKFRVVSMDENFHPLNELIPLVYIQDPKGNRIAQWQSFQLEGGLKQFSFPLSSEPFQGSYKVVVQKKSGGRTEHPFTVEEFVLPKFEVQVTVPKIITILEEEMNVSVCGLYTYGKPVPGHVTVSICRKYSDASDCHGEDSQAFCEKFSGQLNSHGCFYQQVKTKVFQLKRKEYEMKLHTEAQIQEEGTVVELTGRQSSEITRTITKLSFVKVDSHFRQGIPFFGQVRLVDGKGVPIPNKVIFIRGNEANYYSNATTDEHGLVQFSINTTNVMGTSLTVRVNYKDRSPCYGYQWVSEEHEEAHHTAYLVFSPSKSFVHLEPMSHELPCGHTQTVQAHYILNGGTLLGLKKLSFYYLIMAKGGIVRTGTHGLLVKQEDMKGHFSISIPVKSDIAPVARLLIYAVLPTGDVIGDSAKYDVENCLANKVDLSFSPSQSLPASHAHLRVTAAPQSVCALRAVDQSVLLMKPDAELSASSVYNLLPEKDLTGFPGPLNDQDNEDCINRHNVYINGITYTPVSSTNEKDMYSFLEDMGLKAFTNSKIRKPKMCPQLQQYEMHGPEGLRVGFYESDVMGRGHARLVHVEEPHTETVRKYFPETWIWDLVVVNSAGVAEVGVTVPDTITEWKAGAFCLSEDAGLGISSTASLRAFQPFFVELTMPYSVIRGEAFTLKATVLNYLPKCIRVSVQLEASPAFLAVPVEKEQAPHCICANGRQTVSWAVTPKSLGNVNFTVSAEALESQELCGTEVPSVPEHGRKDTVIKPLLVEPEGLEKETTFNSLLCPSGGEVSEELSLKLPPNVVEESARASVSVLGDILGSAMQNTQNLLQMPYGCGEQNMVLFAPNIYVLDYLNETQQLTPEIKSKAIGYLNTGYQRQLNYKHYDGSYSTFGERYGRNQGNTWLTAFVLKTFAQARAYIFIDEAHITQALIWLSQRQKDNGCFRSSGSLLNNAIKGGVEDEVTLSAYITIALLEIPLTVTHPVVRNALFCLESAWKTAQEGDHGSHVYTKALLAYAFALAGNQDKRKEVLKSLNEEAVKKDNSVHWERPQKPKAPVGHFYEPQAPSAEVEMTSYVLLAYLTAQPAPTSEDLTSATNIVKWITKQQNAQGGFSSTQDTVVALHALSKYGAATFTRTGKAAQVTIQSSGTFSSKFQVDNNNRLLLQQVSLPELPGEYSMKVTGEGCVYLQTSLKYNILPEKEEFPFALGVQTLPQTCDEPKAHTSFQISLSVSYTGSRSASNMAIVDVKMVSGFIPLKPTVKMLERSNHVSRTEVSSNHVLIYLDKVSNQTLSLFFTVLQDVPVRDLKPAIVKVYDYYETDEFAIAEYNAPCSKDLGNA
modifications: thioester bond reacted (NH4Cl)
B3: hypochlorite-modified α2M (natural protein, human, UniProt P01023 24-1474, looked up)
chain: B2 chain
modifications: hypochlorite (NaOCl)-modified; residues not stated

Experiments:
native gel or EMSA = molecular target: the molecule itself; test: native gel or EMSA
[1] = molecular target: Hilyte Fluor 488-labeled Aβ1-42 (UniProt P05067 672-713, Hilyte Fluor 488 label (position not given)); test: native gel or EMSA
biotinylated Aβ1-42 = biotinylated Aβ1-42 (UniProt P05067 672-713, biotin (position not given)); test: pull-down
biotinylated Aβ1-42, sequence (P05067 672-713): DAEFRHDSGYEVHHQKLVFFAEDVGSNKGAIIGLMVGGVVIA

Hilyte Fluor 488-labeled Aβ1-42, sequence (P05067 672-713): as above

| Binder | stoichiometry N (native gel or EMSA) | binding result [1] | binding result (biotinylated Aβ1-42) |
| --- | --- | --- | --- |
| B1 | 2 | binds | binds |
| B2 | 4 |  |  |
| B3 | 2 |  |  |
